Biological target: the molecule itself
Experiment: cryo-EM imaging; post-D/R HPV16 VLPs, undiluted, in vitrified ice on holey carbon films; Tecnai F20 at 120 keV

B1: HPV16 L1 virus-like particles (VLPs) (natural protein)
chain: MSLWLPSEATVYLPPVPVSKVVSTDEYVARTNIYYHAGTSRLLAVGHPYFPIKKPNNNKILVPKVSGLQYRVFRIHLPDPNKFGFPDTSFYNPDTQRLVWACVGVEVGRGQPLGVGISGHPLLNKLDDTENASAYAANAGVDNRECISMDYKQTQLCLIGCKPPIGEHWGKGSPCTNVAVNPGDCPPLELINTVIQDGDMVDTGFGAMDFTTLQANKSEVPLDICTSICKYPDYIKMVSEPYGDSLFFYLRREQMFVRHLFNRAGAVGENVPDDLYIKGSGSTANLASSNYFPTPSGSMVTSDAQIFNKPYWLQRAQGHNNGICWGNQLFVTVVDTTRSTNMSLCAAISTSETTYKNTNFKEYLRHGEEYDLQFIFQLCKITLTADVMTYIHSMNSTILEDWNFGLQPPPGGTLEDTYRFVTSQAIACQKHTPPAPKEDPLKKYTFWEVNLKEKFSADLDQFPLGRKFLLQAGLKAKPKFTLGKRKATPTTSSTSTTAKRKKRKL
notes: major capsid protein L1 of human papillomavirus type 16, full length, self-assembled into VLPs; The same L1 protein was tested as pre-D/R VLPs (purified only) and as post-D/R VLPs (disassembled and reassembled); The T = 7 count of 360 copies is stated only in the background; also called HPV 16 L1 VLPs; post-D/R VLPs; source: over expressed in yeast, purified VLPs; post-D/R lots after disassembly …
binding result: binds
